{"source": "paper PMC3707680", "about": "“Structural and Pharmacological Characterization of Novel Potent and Selective Monoclonal Antibody Antagonists of Glucose-dependent Insulinotropic Polypeptide Receptor” (The Journal of Biological Chemistry, 2013)", "molecules": {"B1": {"name": "Gipg013 scFv (scFv, V domains shown)", "VH": "QVQLQQSGAEVKKPGSSVKVSCKASGGTFSSYAISWVRQAPGQGLEWMGGIIPTFGTANYAQKFQGRVTITADESTSTAYMELSSLRSEDTAVYYCAQGPIVGAPTDYWGKGTLVTVSS", "VL": "SYVLTQPPSASGTPGQRVAISCSGSNSNIGSNTVHWYQQLPGAAPKLLIYSNNQRPSGVPDRFSGSNSGTSASLAISRLQSEDEADYYCAAWDDSLNGVVFGGGTKVTVL", "notes": "VH as in the heavy chain of m1; VL as in the light chain of m1; phage vector pCantab6 is named for the libraries"}, "B2": {"name": "Gipg013 Fab (Fab, V domains shown)", "VH": "QVQLQQSGAEVKKPGSSVKVSCKASGGTFSSYAISWVRQAPGQGLEWMGGIIPTFGTANYAQKFQGRVTITADESTSTAYMELSSLRSEDTAVYYCAQGPIVGAPTDYWGKGTLVTVSS", "VL": "SYVLTQPPSASGTPGQRVAISCSGSNSNIGSNTVHWYQQLPGAAPKLLIYSNNQRPSGVPDRFSGSNSGTSASLAISRLQSEDEADYYCAAWDDSLNGVVFGGGTKVTVL", "notes": "heavy chain of the Fab, PDB 4HJ0 chains P and C (final model Gln3-Val217, 206 residues); as the heavy chain of m1 up to the papain cut; light chain of the Fab, PDB 4HJ0 chains Q and D (final model Ser1-Glu213, 211 residues); as the light chain of m1; also called Gip013 Fab; source: papain digestion of the antibody"}, "B3": {"name": "Gipg013 IgG (antibody, V domains shown)", "VH": "QVQLQQSGAEVKKPGSSVKVSCKASGGTFSSYAISWVRQAPGQGLEWMGGIIPTFGTANYAQKFQGRVTITADESTSTAYMELSSLRSEDTAVYYCAQGPIVGAPTDYWGKGTLVTVSS", "VL": "SYVLTQPPSASGTPGQRVAISCSGSNSNIGSNTVHWYQQLPGAAPKLLIYSNNQRPSGVPDRFSGSNSGTSASLAISRLQSEDEADYYCAAWDDSLNGVVFGGGTKVTVL", "notes": "VH of Gipg013; also in PDB 4HJ0 (heavy chain of the Fab, chains P and C); heavy chain constant region of human IgG1 (full-length antibody in the IgG1 format); the light chain is in PDB 4HJ0 (chains Q and D); IgG1; converted from the scFv clone; also called GIP013; Gipr013; source: mammalian cells (variable genes cloned into the pEU vectors), purified; copies: 2 + 2"}}, "key": {"[1]": {"biological_target": "T1, human GIP receptor on HEK293 cells (human) (UniProt P48546)", "T1 sequence": "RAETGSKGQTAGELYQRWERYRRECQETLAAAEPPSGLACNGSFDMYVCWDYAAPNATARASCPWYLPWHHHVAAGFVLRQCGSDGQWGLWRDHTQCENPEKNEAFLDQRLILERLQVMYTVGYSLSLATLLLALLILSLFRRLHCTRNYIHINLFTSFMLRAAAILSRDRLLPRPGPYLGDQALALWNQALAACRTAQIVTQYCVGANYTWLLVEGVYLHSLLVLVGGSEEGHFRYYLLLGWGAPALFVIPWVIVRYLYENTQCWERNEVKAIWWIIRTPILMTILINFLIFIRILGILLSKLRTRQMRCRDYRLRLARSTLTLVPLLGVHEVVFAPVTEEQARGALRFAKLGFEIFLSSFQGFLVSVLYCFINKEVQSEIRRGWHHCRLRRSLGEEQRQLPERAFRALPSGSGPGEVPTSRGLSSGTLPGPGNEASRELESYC"}, "[2]": {"biological_target": "T1, human GIP receptor on HEK293 cells (human)", "assay": "fluorescent microvolume assay technology (FMAT) on cells; receptor ligand competition with unlabelled peptides against AlexaFluor 647-labeled GIP on human GIPr-overexpressing cells; data not shown"}, "GIP(1–42) peptide": {"biological_target": "GIP(1–42) peptide (UniProt P09681)"}, "[3]": {"biological_target": "T2, human GIP receptor on HEK293 cells (human, UniProt P48546)", "T2 construct": "glucose-dependent insulinotropic polypeptide receptor, human, full-length receptor gene; also called HEK293 human GIPr; hGIPr; source: HEK293, stably transfected (pIRESneo3), on cells"}, "biotinylated GIPr ECD": {"biological_target": "T3, biotinylated GIPr ECD (Homo sapiens, biotin (EZ-link Sulfo-NHS-LC-Biotin), positions not stated)", "T3 construct": "glucose-dependent insulinotropic polypeptide receptor, human, extracellular domain; same construct as m4, biotinylated; held on Super Streptavidin biosensors; also called soluble biotinylated GIPr ECD", "T3 chain": "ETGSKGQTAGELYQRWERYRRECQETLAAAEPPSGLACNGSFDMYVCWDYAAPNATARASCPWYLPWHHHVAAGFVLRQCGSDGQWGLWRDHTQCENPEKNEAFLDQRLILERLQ", "assay": "BLI; Octet RED (reflectometric interference spectroscopy); biotinylated GIPr ECD at 1.2 μg/ml on Super Streptavidin biosensors; scFv at ~0.5 μM (12.5 μg/ml), single concentration; PBS with kinetics buffer; 1:1 Langmuir", "conditions": "both partners purified"}, "[4]": {"biological_target": "T4, GIPr ECD (extracellular domain of the human GIP receptor) (Homo sapiens)", "T4 construct": "glucose-dependent insulinotropic polypeptide receptor, human, extracellular domain; also called GIPr extracellular domain", "T4 chain": "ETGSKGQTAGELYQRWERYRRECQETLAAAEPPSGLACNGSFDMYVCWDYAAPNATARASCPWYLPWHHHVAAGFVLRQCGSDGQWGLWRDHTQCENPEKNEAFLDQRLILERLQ", "assay": "SPR; BIAcore, Gipg013 Fab and GIPr ECD; who was immobilised is not told for the Fab", "conditions": "both partners purified"}, "[5]": {"biological_target": "T2, human GIP receptor on HEK293 cells", "remark": "listed apart in the source"}, "[6]": {"biological_target": "T4, GIPr ECD (extracellular domain of the …)", "assay": "SPR; Biacore 2000; Gipg013 IgG amine-coupled to a CM5 chip at low density (~139 resonance units), GIPr ECD in solution; 25 °C, 30 μl/min, HBS-N (10 mM HEPES, pH 7.4, 150 mM sodium chloride); 1:1 Langmuir model", "conditions": "both partners purified"}, "[7]": {"biological_target": "T5, rat GLP-1 receptor on overexpressing cells (Rattus norvegicus, UniProt P32301)", "T5 construct": "glucagon-like peptide 1 receptor, rat; also called rGLP-1r; source: stably transfected cell line, on cells", "T5 sequence (P32301 22-463)": "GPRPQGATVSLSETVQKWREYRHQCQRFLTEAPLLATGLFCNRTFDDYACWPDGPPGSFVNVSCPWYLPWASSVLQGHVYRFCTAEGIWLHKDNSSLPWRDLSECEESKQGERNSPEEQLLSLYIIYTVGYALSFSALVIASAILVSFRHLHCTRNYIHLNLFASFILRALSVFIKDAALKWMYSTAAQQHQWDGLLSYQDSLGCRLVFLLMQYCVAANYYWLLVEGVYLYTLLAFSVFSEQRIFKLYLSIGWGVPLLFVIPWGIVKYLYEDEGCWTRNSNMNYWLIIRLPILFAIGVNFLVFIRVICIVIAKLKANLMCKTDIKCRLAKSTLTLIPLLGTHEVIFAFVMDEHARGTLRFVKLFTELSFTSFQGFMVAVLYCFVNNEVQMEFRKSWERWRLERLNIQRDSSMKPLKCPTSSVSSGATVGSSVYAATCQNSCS", "assay": "fluorescent microvolume assay technology (FMAT) on cells; 0.25 μg/ml IgG with AlexaFluor 647-labeled goat anti-human IgG on stably transfected cells (5000 cells a well), Hanks' balanced salt solution with 0.1% BSA, room temperature, 3 h", "conditions": "one partner purified"}, "[8]": {"biological_target": "T6, dog GLP-1 receptor on overexpressing cells (Canis lupus familiaris, UniProt A0A8I3NUR9)", "T6 construct": "glucagon-like peptide 1 receptor, dog; also called dGLP-1r; source: stably transfected cell line, on cells", "assay": "fluorescent microvolume assay technology (FMAT) on cells; 0.25 μg/ml IgG with AlexaFluor 647-labeled goat anti-human IgG on stably transfected cells (5000 cells a well), Hanks' balanced salt solution with 0.1% BSA, room temperature, 3 h", "conditions": "one partner purified"}, "[9]": {"biological_target": "T7, rat glucagon receptor on overexpressing cells (Rattus norvegicus, UniProt P30082)", "T7 construct": "glucagon receptor, rat; also called GCGr; rGCGr; source: stably transfected cell line, on cells", "T7 sequence (P30082 27-485)": "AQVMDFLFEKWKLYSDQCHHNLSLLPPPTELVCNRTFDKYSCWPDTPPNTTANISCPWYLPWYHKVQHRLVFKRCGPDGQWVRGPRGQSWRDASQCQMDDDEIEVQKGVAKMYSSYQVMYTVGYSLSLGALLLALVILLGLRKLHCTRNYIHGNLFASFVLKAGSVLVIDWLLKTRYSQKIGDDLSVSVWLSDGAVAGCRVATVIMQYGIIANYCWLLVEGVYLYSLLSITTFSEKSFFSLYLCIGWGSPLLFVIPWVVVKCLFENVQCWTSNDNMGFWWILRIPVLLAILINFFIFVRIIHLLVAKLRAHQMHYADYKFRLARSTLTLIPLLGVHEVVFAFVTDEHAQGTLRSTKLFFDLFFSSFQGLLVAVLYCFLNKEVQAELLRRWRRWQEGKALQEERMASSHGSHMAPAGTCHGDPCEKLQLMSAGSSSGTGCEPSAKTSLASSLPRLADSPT", "assay": "fluorescent microvolume assay technology (FMAT) on cells; 0.25 μg/ml IgG with AlexaFluor 647-labeled goat anti-human IgG on stably transfected cells (5000 cells a well), Hanks' balanced salt solution with 0.1% BSA, room temperature, 3 h", "conditions": "one partner purified"}, "[10]": {"biological_target": "T8, human glucagon receptor on overexpressing cells (Homo sapiens, UniProt P47871)", "T8 construct": "glucagon receptor, human; also called GCGr; hGCGr; source: stably transfected cell line, on cells", "T8 sequence (P47871 26-477)": "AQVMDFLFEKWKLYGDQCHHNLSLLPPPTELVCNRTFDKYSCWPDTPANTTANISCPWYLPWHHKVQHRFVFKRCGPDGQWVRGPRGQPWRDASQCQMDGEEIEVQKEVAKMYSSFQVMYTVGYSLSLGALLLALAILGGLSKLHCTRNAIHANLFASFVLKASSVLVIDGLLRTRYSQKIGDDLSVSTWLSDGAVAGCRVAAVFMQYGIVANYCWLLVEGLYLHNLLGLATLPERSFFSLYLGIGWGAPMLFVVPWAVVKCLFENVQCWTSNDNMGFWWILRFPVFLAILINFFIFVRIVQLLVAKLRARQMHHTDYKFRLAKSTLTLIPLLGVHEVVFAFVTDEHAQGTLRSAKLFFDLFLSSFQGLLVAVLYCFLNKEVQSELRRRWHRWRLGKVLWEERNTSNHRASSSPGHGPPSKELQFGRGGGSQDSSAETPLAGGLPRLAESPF", "assay": "fluorescent microvolume assay technology (FMAT) on cells; 0.25 μg/ml IgG with AlexaFluor 647-labeled goat anti-human IgG on stably transfected cells (5000 cells a well), Hanks' balanced salt solution with 0.1% BSA, room temperature, 3 h", "conditions": "one partner purified"}, "[11]": {"biological_target": "T9, mouse GIP receptor on HEK293 cells (Mus musculus, UniProt Q0P543)", "T9 construct": "glucose-dependent insulinotropic polypeptide receptor, mouse, full-length receptor gene; also called mGIPr; source: HEK293, stably transfected (pIRESneo3), on cells", "T9 sequence (Q0P543 19-460)": "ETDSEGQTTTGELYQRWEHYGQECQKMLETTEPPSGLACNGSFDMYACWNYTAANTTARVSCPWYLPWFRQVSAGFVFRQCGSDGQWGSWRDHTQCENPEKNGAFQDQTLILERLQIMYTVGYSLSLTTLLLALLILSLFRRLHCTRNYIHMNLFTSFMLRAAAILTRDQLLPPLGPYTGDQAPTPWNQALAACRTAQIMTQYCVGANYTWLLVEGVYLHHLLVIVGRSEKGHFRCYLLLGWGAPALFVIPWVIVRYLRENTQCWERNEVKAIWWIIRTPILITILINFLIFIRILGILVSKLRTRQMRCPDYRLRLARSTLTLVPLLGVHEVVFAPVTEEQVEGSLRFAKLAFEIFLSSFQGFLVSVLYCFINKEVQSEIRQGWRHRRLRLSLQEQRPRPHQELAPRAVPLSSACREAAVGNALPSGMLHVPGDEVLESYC", "assay": "fluorescent microvolume assay technology (FMAT) on cells; 0.25 μg/ml IgG with AlexaFluor 647-labeled goat anti-human IgG on stably transfected cells (5000 cells a well), Hanks' balanced salt solution with 0.1% BSA, room temperature, 3 h", "conditions": "one partner purified"}, "[12]": {"biological_target": "T10, mouse GLP-1 receptor on overexpressing cells (Mus musculus, UniProt O35659)", "T10 construct": "glucagon-like peptide 1 receptor, mouse; also called mGLP-1r; source: stably transfected cell line, on cells", "T10 sequence (O35659 22-463)": "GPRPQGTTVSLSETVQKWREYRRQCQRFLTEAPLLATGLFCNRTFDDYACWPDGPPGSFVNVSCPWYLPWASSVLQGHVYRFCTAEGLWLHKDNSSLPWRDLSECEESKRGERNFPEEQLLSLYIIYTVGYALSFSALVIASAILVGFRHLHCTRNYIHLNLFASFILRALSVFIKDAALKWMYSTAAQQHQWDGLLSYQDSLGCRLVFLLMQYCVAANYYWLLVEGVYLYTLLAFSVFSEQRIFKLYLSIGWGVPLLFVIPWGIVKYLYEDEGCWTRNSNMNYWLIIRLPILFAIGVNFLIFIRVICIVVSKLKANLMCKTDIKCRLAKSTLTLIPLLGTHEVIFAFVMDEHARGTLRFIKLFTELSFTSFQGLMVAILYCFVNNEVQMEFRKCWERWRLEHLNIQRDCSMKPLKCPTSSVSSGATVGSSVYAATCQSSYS", "assay": "fluorescent microvolume assay technology (FMAT) on cells; 0.25 μg/ml IgG with AlexaFluor 647-labeled goat anti-human IgG on stably transfected cells (5000 cells a well), Hanks' balanced salt solution with 0.1% BSA, room temperature, 3 h", "conditions": "one partner purified"}, "[13]": {"biological_target": "T11, mouse glucagon receptor on overexpressing cells (Mus musculus, UniProt Q61606)", "T11 construct": "glucagon receptor, mouse; also called GCGr; mGCGr; source: stably transfected cell line, on cells", "T11 sequence (Q61606 27-485)": "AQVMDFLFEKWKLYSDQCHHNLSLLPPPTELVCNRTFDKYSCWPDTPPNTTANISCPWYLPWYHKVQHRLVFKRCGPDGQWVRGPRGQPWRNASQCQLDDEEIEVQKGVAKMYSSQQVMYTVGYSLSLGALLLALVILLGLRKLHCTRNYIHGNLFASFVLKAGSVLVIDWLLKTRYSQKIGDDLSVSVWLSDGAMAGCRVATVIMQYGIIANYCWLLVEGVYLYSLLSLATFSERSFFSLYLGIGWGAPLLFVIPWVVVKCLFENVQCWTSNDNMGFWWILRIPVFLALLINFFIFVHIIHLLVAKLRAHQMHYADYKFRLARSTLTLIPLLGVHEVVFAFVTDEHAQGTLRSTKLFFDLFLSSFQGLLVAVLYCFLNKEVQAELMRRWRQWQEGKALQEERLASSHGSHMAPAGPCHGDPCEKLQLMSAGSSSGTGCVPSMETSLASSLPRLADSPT", "assay": "fluorescent microvolume assay technology (FMAT) on cells; 0.25 μg/ml IgG with AlexaFluor 647-labeled goat anti-human IgG on stably transfected cells (5000 cells a well), Hanks' balanced salt solution with 0.1% BSA, room temperature, 3 h", "conditions": "one partner purified"}, "[14]": {"biological_target": "T12, human GLP-1 receptor on overexpressing cells (Homo sapiens, UniProt P43220)", "T12 construct": "glucagon-like peptide 1 receptor, human; also called hGLP-1r; source: stably transfected cell line, on cells", "T12 sequence (P43220 24-463)": "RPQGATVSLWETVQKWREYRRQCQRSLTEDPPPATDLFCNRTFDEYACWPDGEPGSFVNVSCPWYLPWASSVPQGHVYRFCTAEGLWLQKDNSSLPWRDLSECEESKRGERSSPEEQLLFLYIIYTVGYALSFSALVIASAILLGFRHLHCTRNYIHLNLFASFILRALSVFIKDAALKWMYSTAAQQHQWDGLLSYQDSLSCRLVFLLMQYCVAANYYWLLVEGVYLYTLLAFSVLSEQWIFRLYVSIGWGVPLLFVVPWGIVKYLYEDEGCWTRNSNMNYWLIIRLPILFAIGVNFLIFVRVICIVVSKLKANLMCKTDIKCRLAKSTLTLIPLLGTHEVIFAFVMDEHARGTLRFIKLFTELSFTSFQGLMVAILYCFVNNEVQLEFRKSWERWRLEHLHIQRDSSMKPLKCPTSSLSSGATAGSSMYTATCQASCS", "assay": "fluorescent microvolume assay technology (FMAT) on cells; 0.25 μg/ml IgG with AlexaFluor 647-labeled goat anti-human IgG on stably transfected cells (5000 cells a well), Hanks' balanced salt solution with 0.1% BSA, room temperature, 3 h", "conditions": "one partner purified"}, "[15]": {"biological_target": "T2, human GIP receptor on HEK293 cells", "assay": "fluorescent microvolume assay technology (FMAT) on cells; receptor ligand competition: dilution series of antibody against 0.5 nM AlexaFluor 647-labeled GIP on HEK293 human GIPr cells, Hanks' balanced salt solution with 0.1% BSA, room temperature, 1–2 h", "conditions": "one partner purified"}}, "note": "Where two headings read alike, the source gives them in different places."}
{"molecule": "GIP(7–30) (peptide)", "values": [{"measurement": "cAMP HTRF assay, antagonism of GIP-induced cAMP production in HEK293 human GIPr cells", "setting": "[1]", "value": 230, "unit": "nM"}, {"measurement": "IC50", "setting": "[2]", "value": 0.083, "unit": "µM"}]}
{"molecule": "Pro3GIP (peptide)", "values": [{"measurement": "cAMP HTRF assay, agonism in HEK293 human GIPr cells (partial, to 83% of the response with GIP)", "setting": "[1]", "value": 180, "unit": "nM"}]}
{"molecule": "biotinylated GIPr ECD (domain or fragment)", "values": [{"measurement": "cAMP assay on HEK293 GIPr cells: soluble GIPr ECD competes with the cell surface GIPr for GIP", "setting": "GIP(1–42) peptide", "value": 7, "unit": "µM"}]}
{"molecule": "B1", "values": [{"measurement": "cAMP HTRF assay, antagonism of GIP-induced cAMP production in HEK293 human GIPr cells (blocks GIP on GIPr)", "setting": "[3]", "value": 233, "unit": "nM"}, {"measurement": "Kd", "setting": "biotinylated GIPr ECD", "value": 0.025, "unit": "µM"}, {"measurement": "koff", "setting": "biotinylated GIPr ECD", "value": 0.00188, "unit": "s⁻¹"}, {"measurement": "kon", "setting": "biotinylated GIPr ECD", "value": 74500, "unit": "M⁻¹ s⁻¹"}]}
{"molecule": "B2", "values": [{"measurement": "Kd", "setting": "[4]", "value": 0.04, "unit": "µM"}, {"measurement": "cAMP HTRF assay, antagonism of GIP-induced cAMP production in HEK293 human GIPr cells (blocks GIP on GIPr)", "setting": "[5]", "value": 102, "unit": "nM"}]}
{"molecule": "B3", "values": [{"measurement": "Kd", "setting": "[6]", "value": 0.023, "unit": "µM"}, {"measurement": "koff", "setting": "[6]", "value": 0.00369, "unit": "s⁻¹"}, {"measurement": "kon", "setting": "[6]", "value": 159000, "unit": "M⁻¹ s⁻¹"}, {"measurement": "binding result", "setting": "[7]", "value": "no binding (tested: 0.25 μg/ml)"}, {"measurement": "binding result", "setting": "[8]", "value": "no binding (tested: 0.25 μg/ml)"}, {"measurement": "binding result", "setting": "[9]", "value": "no binding (tested: 0.25 μg/ml)"}, {"measurement": "binding result", "setting": "[10]", "value": "no binding (tested: 0.25 μg/ml)"}, {"measurement": "binding result", "setting": "[11]", "value": "binds"}, {"measurement": "binding result", "setting": "[12]", "value": "no binding (tested: 0.25 μg/ml)"}, {"measurement": "binding result", "setting": "[13]", "value": "no binding (tested: 0.25 μg/ml)"}, {"measurement": "binding result", "setting": "[14]", "value": "no binding (tested: 0.25 μg/ml)"}, {"measurement": "IC50", "setting": "[15]", "value": "0.0172 ± 0.006", "unit": "µM"}]}
